What all share (test): pulldown
What all share (details): 20 nM protein, 1.5 uM RNA pool; 20 mM HEPES pH 7.8, 70 mM KCl, 10 mM NaCl, 10% glycerol, 2 mM DTT, 0.1 ug/uL BSA; 30 min, 4 C

Series [1] concerns the target T1, SCL30 (Arabidopsis thaliana) (UniProt Q8L3X8).
T1 sequence: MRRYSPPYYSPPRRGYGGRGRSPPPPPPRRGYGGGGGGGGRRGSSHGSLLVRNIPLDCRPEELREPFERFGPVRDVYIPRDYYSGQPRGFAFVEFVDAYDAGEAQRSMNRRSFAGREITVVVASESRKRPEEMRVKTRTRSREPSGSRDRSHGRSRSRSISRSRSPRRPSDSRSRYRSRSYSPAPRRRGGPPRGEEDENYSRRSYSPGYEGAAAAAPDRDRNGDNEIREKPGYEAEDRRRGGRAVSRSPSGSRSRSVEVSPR

For series [2], the target named is T2, PK14112.1 (Cannabis sativa) (UniProt A0A7J6DPE0).
T2 sequence: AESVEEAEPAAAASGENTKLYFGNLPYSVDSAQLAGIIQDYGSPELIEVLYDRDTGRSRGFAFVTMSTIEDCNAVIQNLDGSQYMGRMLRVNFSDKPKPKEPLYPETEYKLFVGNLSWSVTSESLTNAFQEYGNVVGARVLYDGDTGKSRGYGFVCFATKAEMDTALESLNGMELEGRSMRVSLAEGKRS

The target in series [3] is T3, CBG04067 ins404_V (Caenorhabditis briggsae) (UniProt Q6E3D5).
T3 sequence: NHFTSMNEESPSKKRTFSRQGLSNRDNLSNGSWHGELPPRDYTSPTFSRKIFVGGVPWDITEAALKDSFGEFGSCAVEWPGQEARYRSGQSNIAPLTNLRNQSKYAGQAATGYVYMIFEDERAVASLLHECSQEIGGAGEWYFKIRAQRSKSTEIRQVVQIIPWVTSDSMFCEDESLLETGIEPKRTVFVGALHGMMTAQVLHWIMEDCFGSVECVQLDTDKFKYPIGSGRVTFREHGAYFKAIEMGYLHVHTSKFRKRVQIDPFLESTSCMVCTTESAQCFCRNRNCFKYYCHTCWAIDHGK

In series [4] the target is T4, CBG14639 (Caenorhabditis briggsae) (UniProt A8XKC4).
T4 sequence: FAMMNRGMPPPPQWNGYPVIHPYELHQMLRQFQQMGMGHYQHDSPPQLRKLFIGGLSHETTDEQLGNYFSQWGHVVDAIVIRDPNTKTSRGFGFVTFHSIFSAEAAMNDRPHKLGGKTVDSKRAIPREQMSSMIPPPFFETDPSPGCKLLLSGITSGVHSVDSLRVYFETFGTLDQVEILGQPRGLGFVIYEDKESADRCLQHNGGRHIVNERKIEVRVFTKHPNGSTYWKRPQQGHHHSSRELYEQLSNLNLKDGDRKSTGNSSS

Series [5] deals with T5, PK15111.1 (Cannabis sativa).
T5 sequence: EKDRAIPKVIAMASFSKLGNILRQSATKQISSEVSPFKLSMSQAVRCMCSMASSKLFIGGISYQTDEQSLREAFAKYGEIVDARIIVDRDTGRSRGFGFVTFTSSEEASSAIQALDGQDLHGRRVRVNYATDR

Series [6] addresses T6, PK20300.1 (Cannabis sativa) (UniProt A0A803QWA0).
T6 sequence: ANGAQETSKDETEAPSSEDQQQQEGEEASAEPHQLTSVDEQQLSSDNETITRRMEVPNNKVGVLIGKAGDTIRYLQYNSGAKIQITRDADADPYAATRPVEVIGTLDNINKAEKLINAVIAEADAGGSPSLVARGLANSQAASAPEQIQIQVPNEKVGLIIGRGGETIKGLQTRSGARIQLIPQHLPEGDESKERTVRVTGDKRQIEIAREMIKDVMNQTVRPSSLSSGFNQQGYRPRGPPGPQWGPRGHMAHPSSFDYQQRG

Series [7] deals with T7, CBG15837 R479I (Caenorhabditis briggsae) (UniProt A8XMX3).
T7 sequence: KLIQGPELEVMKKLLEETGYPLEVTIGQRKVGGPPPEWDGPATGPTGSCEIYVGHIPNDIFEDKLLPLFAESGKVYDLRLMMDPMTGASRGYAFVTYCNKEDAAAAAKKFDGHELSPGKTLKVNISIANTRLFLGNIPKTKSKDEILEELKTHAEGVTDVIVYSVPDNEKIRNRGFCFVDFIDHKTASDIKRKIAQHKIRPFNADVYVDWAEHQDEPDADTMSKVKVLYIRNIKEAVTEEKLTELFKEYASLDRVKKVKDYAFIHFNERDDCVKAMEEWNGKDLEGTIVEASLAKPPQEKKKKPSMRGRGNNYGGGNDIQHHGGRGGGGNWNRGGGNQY

The target of another series is hnrnpa0l (Danio rerio) (UniProt A0ACM8Q088).
hnrnpa0l (Danio rerio), sequence (A0ACM8Q088 entry or part of it): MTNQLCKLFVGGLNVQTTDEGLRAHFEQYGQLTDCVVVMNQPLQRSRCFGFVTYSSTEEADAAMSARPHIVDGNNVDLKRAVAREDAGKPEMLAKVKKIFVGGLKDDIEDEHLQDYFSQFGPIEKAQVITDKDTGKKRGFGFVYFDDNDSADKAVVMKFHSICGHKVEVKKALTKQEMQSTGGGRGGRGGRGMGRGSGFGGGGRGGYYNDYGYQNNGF
Series [8] concerns the target T8, PK27686.1 K290R (Cannabis sativa) (UniProt A0A7J6ICA3).
T8 sequence: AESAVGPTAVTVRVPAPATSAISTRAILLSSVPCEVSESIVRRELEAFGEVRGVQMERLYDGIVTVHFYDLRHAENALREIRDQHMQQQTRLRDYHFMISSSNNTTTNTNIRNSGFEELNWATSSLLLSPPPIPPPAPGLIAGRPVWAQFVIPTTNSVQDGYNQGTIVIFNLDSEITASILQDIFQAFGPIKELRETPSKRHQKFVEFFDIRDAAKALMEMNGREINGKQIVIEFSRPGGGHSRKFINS

Series [9] addresses T9, PK15181.1 (Cannabis sativa) (UniProt A0A7J6E558).
T9 sequence: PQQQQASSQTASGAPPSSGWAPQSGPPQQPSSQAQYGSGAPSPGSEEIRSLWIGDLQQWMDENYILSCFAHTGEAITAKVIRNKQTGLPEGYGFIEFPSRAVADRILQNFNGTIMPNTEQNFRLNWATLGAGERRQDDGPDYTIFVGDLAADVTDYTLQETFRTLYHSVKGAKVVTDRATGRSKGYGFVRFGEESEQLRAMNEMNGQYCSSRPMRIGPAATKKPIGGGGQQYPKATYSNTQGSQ

The target of series [10] is T10, PK26404.1 L183S (Cannabis sativa) (UniProt A0A7J6ELY7).
T10 sequence: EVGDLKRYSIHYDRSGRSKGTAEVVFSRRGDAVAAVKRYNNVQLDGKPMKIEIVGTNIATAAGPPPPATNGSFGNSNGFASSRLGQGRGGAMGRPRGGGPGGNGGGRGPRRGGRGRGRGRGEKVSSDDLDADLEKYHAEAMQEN

On to AGAAGA [RNAcompete motif RNCMPT00382], for which, in series [1], the binding signal (z-score (mean of top ten 7-mers)) is 7.94. GAUACUG [RNAcompete motif RNCMPT00392] returned a binding signal (z-score (mean of top ten 7-mers)) in series [2] of 8.21. In turn, GUUUUA [RNAcompete motif RNCMPT00341] displayed a binding signal (z-score (mean of top ten 7-mers)) in series [3] of 9.44.

In turn, AUUAGG [RNAcompete motif RNCMPT00331] showed a binding signal (z-score (mean of top ten 7-mers)) in [4] of 8.86. For AAGUAGA [RNAcompete motif RNCMPT00368], in series [5], the binding signal (z-score (mean of top ten 7-mers)) was 6.73. In the case of AGCAUGA [RNAcompete motif RNCMPT00360], the binding signal (z-score (mean of top ten 7-mers)) in [6] was determined as 11.4. In turn, AAAAAUUU [RNAcompete motif RNCMPT00344] gave a binding signal (z-score (mean of top ten 7-mers)) in series [7] of 9.1. Consider AUAGGA [RNAcompete motif RNCMPT00340], for which the binding signal (z-score (mean of top ten 7-mers)) with hnrnpa0l (Danio rerio) was 10.9. AAUUUU [RNAcompete motif RNCMPT00349]: the binding signal (z-score (mean of top ten 7-mers)) in series [8] is 14.6. In series [9], UUUUUU [RNAcompete motif RNCMPT00345] yielded a binding signal (z-score (mean of top ten 7-mers)) of 9.71. On to GCGCGC [RNAcompete motif RNCMPT00364], for which the binding signal (z-score (mean of top ten 7-mers)) in series [10] is 6.8.
